Measured values: the Immune Epitope Database (IEDB)

What was measured:
[1] = target: HLA-A*68:02; assay: IEDB peptide-MHC binding, cellular MHC/competitive/fluorescence; ≥ and ≤ were set here for values at or beyond the usual limits of such assays
[2] = target: HLA-A*02:02; assay: as above
[3] = target: HLA-A*02:01; assay: as above
[4] = target: HLA-A*02:06; assay: as above
[5] = target: HLA-A*02:03; assay: IEDB peptide-MHC binding, purified MHC/competitive/radioactivity; ≥ and ≤ were set here for values at or beyond the usual limits of such assays
[6] = target: HLA-A*02:03; assay: IEDB peptide-MHC binding, cellular MHC/competitive/fluorescence; ≥ and ≤ were set here for values at or beyond the usual limits of such assays; conditions: source organism: Vaccinia virus WR
[7] = target: HLA-A*68:02; assay: IEDB peptide-MHC binding, purified MHC/competitive/radioactivity; ≥ and ≤ were set here for values at or beyond the usual limits of such assays; conditions: source organism: Vaccinia virus WR
[8] = target: HLA-A*02:02; assay: as above; conditions: source organism: Vaccinia virus WR
[9] = target: HLA-A*02:01; assay: as above; conditions: source organism: Vaccinia virus WR
[10] = target: HLA-A*02:06; assay: as above; conditions: source organism: Vaccinia virus WR
[11] = source organism: Vaccinia virus WR
[12] = source organism: Influenza A virus

RTRLYDYFT
IC50 [1, 11]: 27.2 µM | IC50 [2, 11]: 7.1 µM | IC50 [3, 11]: 49.5 µM | IC50 [4, 11]: 48.7 µM | IC50 [5, 11]: 3.05 µM

ALYYVHSLL
IC50 [6]: 15 µM | IC50 [7]: 0.598 µM | IC50 [8]: 0.026 µM | IC50 [9]: 0.229 µM | IC50 [10]: 3.26 µM

WIKNLETYT
IC50 [1, 11]: ≥ 70 µM | IC50 [2, 11]: 18.3 µM | IC50 [3, 11]: 49.5 µM | IC50 [4, 11]: 8.2 µM | IC50 [5, 11]: 0.637 µM

SICLDYIIV
IC50 [6]: 8.65 µM | IC50 [7]: 2.93 µM | IC50 [8]: 1.46 µM | IC50 [9]: 0.579 µM | IC50 [10]: 0.689 µM

ELENKKVEYV
IC50 [1, 11]: ≥ 70 µM | IC50 [2, 11]: 21.4 µM | IC50 [3, 11]: 35.5 µM | IC50 [4, 11]: ≥ 70 µM | IC50 [5, 11]: 3.65 µM

RAMAWTVV
IC50 [1, 12]: ≥ 70 µM | IC50 [2, 12]: 8.18 µM | IC50 [3, 12]: 7.6 µM | IC50 [4, 12]: 7.78 µM | IC50 [5, 12]: 2.42 µM

AMHDKKIDI
IC50 [1, 11]: 8 µM | IC50 [2, 11]: 17.2 µM | IC50 [3, 11]: 8.85 µM | IC50 [4, 11]: 42 µM | IC50 [5, 11]: 1.52 µM

ITVGMLIYSM
IC50 [6]: 6.11 µM | IC50 [7]: 0.611 µM | IC50 [8]: 0.047 µM | IC50 [9]: 0.167 µM | IC50 [10]: 0.097 µM

TLNRNQPAA
IC50 [1, 12]: ≥ 70 µM | IC50 [2, 12]: 11.4 µM | IC50 [3, 12]: 15.2 µM | IC50 [4, 12]: ≥ 70 µM | IC50 [5, 12]: 0.583 µM

CVDHPFIYVI
IC50 [6]: 10.8 µM | IC50 [7]: 0.791 µM | IC50 [8]: 0.964 µM | IC50 [9]: 2.89 µM | IC50 [10]: 1.61 µM

NLERETGLSA
IC50 [1, 11]: 31.3 µM | IC50 [2, 11]: 17.6 µM | IC50 [3, 11]: 17.5 µM | IC50 [4, 11]: 15 µM | IC50 [5, 11]: 1.66 µM

SLETVKMGA
IC50 [1, 11]: ≥ 70 µM | IC50 [2, 11]: 11.2 µM | IC50 [3, 11]: 26.1 µM | IC50 [4, 11]: 23.4 µM | IC50 [5, 11]: 0.547 µM

ITNILGGVL
IC50 [1, 11]: 9.24 µM | IC50 [2, 11]: 7.38 µM | IC50 [3, 11]: ≥ 70 µM | IC50 [4, 11]: 32.5 µM | IC50 [5, 11]: 2.44 µM

IIYSKAGNI
IC50 [1, 11]: 5.39 µM | IC50 [2, 11]: 9.76 µM | IC50 [3, 11]: 50.7 µM | IC50 [4, 11]: 13.7 µM | IC50 [5, 11]: 0.013 µM

VIRNEVNDT
IC50 [1, 11]: 28.3 µM | IC50 [2, 11]: 19.9 µM | IC50 [3, 11]: ≥ 70 µM | IC50 [4, 11]: ≥ 70 µM | IC50 [5, 11]: 0.82 µM

FIVYGRSNA
IC50 [1, 11]: 5.26 µM | IC50 [2, 11]: 6.09 µM | IC50 [3, 11]: 16.9 µM | IC50 [4, 11]: 8.75 µM | IC50 [5, 11]: 0.37 µM
